The source of these data is patent publication US20240368668A1, “SUBSTRATES AND BIOMARKERS OF ADAMTS7” (The Broad Institute, Inc., priority 2021, published 2024).

Square brackets hold non-standard residues; d marks the D form. Ends that are not written are not given here. pGlu = O=C1CC[C@@H](C(=O)O)N1

The target in this assay is T1, mouse ADAMTS7 (Mus musculus, UniProt Q68SA9, E373Q).
T1 construct: Full-length mouse Adamts7 1-1857 (Uniprot Q68SA9, WT or E373Q catalytic mutant); expressed in transfected cells; host or cells: Human Coronary Artery Smooth Muscle Cells (HCA-SMC, Lonza), adenovirus 50 MOI
T1 sequence (Q68SA9 221-1657 E373Q): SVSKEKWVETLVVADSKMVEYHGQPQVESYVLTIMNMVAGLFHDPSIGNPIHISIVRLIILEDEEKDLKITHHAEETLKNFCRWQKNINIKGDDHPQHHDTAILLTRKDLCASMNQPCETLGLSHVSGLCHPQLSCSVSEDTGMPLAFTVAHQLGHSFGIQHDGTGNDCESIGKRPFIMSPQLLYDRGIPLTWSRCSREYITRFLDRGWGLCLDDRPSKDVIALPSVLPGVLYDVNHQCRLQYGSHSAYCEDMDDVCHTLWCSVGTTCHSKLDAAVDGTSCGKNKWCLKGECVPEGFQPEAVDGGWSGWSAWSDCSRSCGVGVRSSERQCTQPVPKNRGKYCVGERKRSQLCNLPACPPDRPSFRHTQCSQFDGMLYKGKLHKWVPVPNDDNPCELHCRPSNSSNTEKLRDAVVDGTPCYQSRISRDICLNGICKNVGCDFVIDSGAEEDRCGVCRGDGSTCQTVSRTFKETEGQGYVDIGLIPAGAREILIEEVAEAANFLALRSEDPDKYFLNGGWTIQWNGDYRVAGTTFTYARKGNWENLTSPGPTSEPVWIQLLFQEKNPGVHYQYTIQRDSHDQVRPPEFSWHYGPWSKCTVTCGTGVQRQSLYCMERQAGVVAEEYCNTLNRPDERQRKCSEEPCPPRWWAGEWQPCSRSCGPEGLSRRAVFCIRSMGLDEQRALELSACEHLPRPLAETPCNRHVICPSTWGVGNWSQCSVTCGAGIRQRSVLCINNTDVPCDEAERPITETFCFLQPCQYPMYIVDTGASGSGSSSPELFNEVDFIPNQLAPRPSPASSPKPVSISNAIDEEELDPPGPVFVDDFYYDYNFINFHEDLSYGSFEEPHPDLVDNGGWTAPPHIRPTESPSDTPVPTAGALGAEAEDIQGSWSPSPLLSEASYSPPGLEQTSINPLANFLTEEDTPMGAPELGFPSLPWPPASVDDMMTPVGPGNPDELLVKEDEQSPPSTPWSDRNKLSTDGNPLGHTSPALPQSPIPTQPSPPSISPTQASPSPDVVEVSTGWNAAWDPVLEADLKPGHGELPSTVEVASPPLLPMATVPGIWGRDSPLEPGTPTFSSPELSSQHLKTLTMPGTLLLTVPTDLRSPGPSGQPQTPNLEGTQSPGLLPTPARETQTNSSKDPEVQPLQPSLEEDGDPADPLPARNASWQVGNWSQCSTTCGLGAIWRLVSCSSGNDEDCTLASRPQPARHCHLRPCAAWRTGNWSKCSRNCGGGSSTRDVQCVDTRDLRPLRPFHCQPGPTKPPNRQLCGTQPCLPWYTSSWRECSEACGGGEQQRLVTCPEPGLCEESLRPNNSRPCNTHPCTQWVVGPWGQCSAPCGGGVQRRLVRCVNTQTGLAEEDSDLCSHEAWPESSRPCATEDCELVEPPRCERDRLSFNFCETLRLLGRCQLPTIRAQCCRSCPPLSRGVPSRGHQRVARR
Nature of the assay: TMT10 TAILS N-terminomics, SMC1 experiment (Ad-mADAMTS7 WT vs EQ vs Luc, technical replicates, trypsin digest). The settings on record: TAILS neo-N-terminal peptide abundance; log fold change, Ad-mADAMTS7 EQ over Luc. Type of assay: cell-based. From the text:
ADAMTS7 Expression, Cell Culture and Preparation of the Secreted Proteins—Full-length mouse Adamts7 1-1857 (Uniprot Q68SA9, WT or E373Q catalytic mutant) with a carboxyl terminal 3xFLAG tag was used to generate custom adenoviruses as previously described. Adeno-CMV-Luciferase (Ad-Luc) from Vector Biolabs was used as a negative control. Human Coronary Artery Smooth Muscle Cells (HCA-SMC) were obtained from Lonza and expanded in Lonza SmGM-2 media in 15 cm tissue culture plates. Twenty-four hours before media collection, near confluent plates were transduced with 50 MOI adenovirus and switched to Lonza Basal SM media with volumes of 20 ml per 15 cm plate. Expression of the Flag tagged ADAMTS7 was confirmed from the media using western blot and detected using the anti-Flag M2-HRP antibody (Sigma, A8592). Collected media was processed by adding protease inhibitors (1 mM EDTA and 1 mM PMSF) and clarified by 500 g×5 min spin at 4 C to pellet cell debris. Cell media supernatants were then passed through a 0.22 um filter and kept chilled. Processed media was then concentrated 50-100× using 3 kDa Centricon Plus-70 filter unit, spun at 3,500 g×60 min at 4 C. Approximately 10% of the processed, concentrated media was set aside for total secretome proteolytic analysis. The remaining 90% of the processed, concentrated media was buffer exchanged into 50 mM HEPES pH 8.0, 150 mM NaCl (2×50 ml) using the 3 kDa Centricon Plus-70 filter unit and concentrated to >2 mg/ml to serve as input for the TAILS experiment. Secretome and TAILS input samples were stored at −80° C.
For the first experiment, referred to as SMC1, 120 ml of media from 6×15 cm dishes was pooled from each condition (Luc, WT, EQ) and processed to produce three separate inputs for the TAILS experiment. Luc, WT and EQ inputs from the SMC1 experiment were each divided into triplicate 400 ug samples to generate technical replicate TAILS data. For the second experiment, referred to as SMC2, media was processed separately in triplicate for each condition (Luc1, Luc2, Luc3, WT1, WT2, WT3, EQ1, EQ2, EQ3) using 60 ml of media from 3×15 cm dishes for each process replicate. Inputs from the SMC2 experiment used process replicates of 300 ug each to generate TAILS data. The third experiment used input from cultured Human umbilical vein endothelial cells (HUVEC) from Lifeline Cell Technology grown in VascuLife Media and transduced in Lifeline Basal EC (+bFGF2 10 ng/ml). The HUVEC experiment used the same strategy as the SMC2 experiment, with 40 ml of media from 2×15 cm dishes for each process replicate and used 200 ug each to generate TAILS data. Inputs for process replicate experiments were restricted to the lowest concentration from the 9 parallel samples for SMC2 or HUVEC.
TMT10 isotopic labeling and negative selection of non-labeled peptides-Sample preparation was performed based on the TAILS protocol from the Overall lab with some modifications. From a single experiment, nine parallel protein samples in 50 mM HEPES pH 8.0, 150 mM NaCl were separately denatured with guanidinium chloride (Sigma, G4505) to reach a final concentration of 2.5M guanidinium chloride and 250 mM HEPES and incubated at 65° C. for 15 min. Reduction was achieved through addition of tris(2-carboxylethyl) phosphine (TCEP) at a final concentration of […] and incubated at 65° C. for 45 min. Alkylation reaction was performed with addition of iodoacetamide (IAA, Sigma, A3221) to a final concentration of 10 mM IAA for 15 min at room temperature in the dark. Following denaturation, reduction and alkylation steps, ten percent of each of the nine parallel protein samples was removed and combined to serve as a pooled reference. Isobaric tags were added to free amine groups using the TMT10plex Isobaric Mass Tagging Kit (ThermoFisher, 90113) with TMT channels randomly assigned to the nine samples and TMT 131 assigned to the pooled reference. […]
Take “ACTB_21 (FAGDDAPR; listed as Homo sapiens)”: the logFC.mEQ.over.Luc was −0.08.

With “ACTB_105 (LTEAPLNPKANR; listed as Homo sapiens)”, the logFC.mEQ.over.Luc is reported as −0.12.

In turn, “ADAM9_69 (VIQAEGKEHIIHLER; listed as Homo sapiens)” had a logFC.mEQ.over.Luc of −0.10.

With “AEBP1_37 (FLEGFLSELEPEPR; listed as Homo sapiens)”, the logFC.mEQ.over.Luc was −0.18.

For “APLP2_579 (ISETPVDVR; listed as Homo sapiens)”, the logFC.mEQ.over.Luc is listed as 0.27.

On to “CCDC80_66 (LEEPNLQPLQR; listed as Homo sapiens)”, for which the logFC.mEQ.over.Luc is recorded as 0.14.

For the substance “ECM1_134 (FGDQSHPEPESWNAAQHCQQDR; listed as Homo sapiens)”, the logFC.mEQ.over.Luc turned out to be 0.28.

In turn, “EFEMP1_124 (AVAGPEMQTGR; listed as Homo sapiens)” gave a logFC.mEQ.over.Luc of −0.59.

In turn, “EFEMP1_125 (VAGPEMQTGR; listed as Homo sapiens)” had a logFC.mEQ.over.Luc of −0.33.

The substance “EFHD2_67 (QGIGEPQSPSR; listed as Homo sapiens)” returned a logFC.mEQ.over.Luc of −0.09.

In turn, “EHBP1L1_298 (TAPTPAPR; listed as Homo sapiens)” had a logFC.mEQ.over.Luc of −0.22.

For the substance “FBLN2_259 (ALGPPAPVQAKAR; listed as Homo sapiens)”, the logFC.mEQ.over.Luc is −0.01.

As to “FBLN2_260 (LGPPAPVQAKAR; listed as Homo sapiens)”, the logFC.mEQ.over.Luc is −0.74.

Substance “FBN1_29 (LEAGNVKETR; listed as Homo sapiens)” yielded a logFC.mEQ.over.Luc of 0.21.

Take “FBN1_53 (LKGPNVCGSR; listed as Homo sapiens)”: the logFC.mEQ.over.Luc was −0.04.

“FLNA_612 (SVEGPSQAKIECDDKGDGSCDVR; listed as Homo sapiens)” yielded a logFC.mEQ.over.Luc of 0.19.

For “FLNA_695 (FTVDAKHGGKAPLR; listed as Homo sapiens)”, the logFC.mEQ.over.Luc is −0.25.

With “FLNA_1285 (LTQTGGPHVKAR; listed as Homo sapiens)”, the logFC.mEQ.over.Luc is −0.11.

Substance “FN1_36 (MVQPQSPVAVSQSKPGCYDNGKHYQINQQWER; listed as Homo sapiens)” yielded a logFC.mEQ.over.Luc of 0.39.

As for “FN1_40 (QSPVAVSQSKPGCYDNGKHYQINQQWER; listed as Homo sapiens)”, the logFC.mEQ.over.Luc is reported as −0.40.

In the case of “FN1_45 (VSQSKPGCYDNGKHYQINQQWER; listed as Homo sapiens)”, the logFC.mEQ.over.Luc was 0.49.

“FN1_47 ([code q]SKPGCYD[code n]GKHYQINQQWER; not fully specified; listed as Homo sapiens)” showed a logFC.mEQ.over.Luc of 0.19.

With “FN1_281 (SGSGPFTDVR; listed as Homo sapiens)”, the logFC.mEQ.over.Luc came out at 0.56.

For “FN1_282 (GSGPFTDVR; listed as Homo sapiens)”, the logFC.mEQ.over.Luc was −0.15.

In the case of “FN1_886 (NQESTPVVIQQETTGTPR; listed as Homo sapiens)”, the logFC.mEQ.over.Luc was 0.49.

Regarding “FN1_1143 (LTPGVEYVYTIQVLR; listed as Homo sapiens)”, the logFC.mEQ.over.Luc is given as 0.00.

“FN1_1656 (SSSPVTGYR; listed as Homo sapiens)” registered a logFC.mEQ.over.Luc of −0.08.

“FN1_1731 (FTDVDVDSIKIAWESPQGQVSR; listed as Homo sapiens)” came in with a logFC.mEQ.over.Luc of −0.11.

“FN1_2143 (FEEHGFR; listed as Homo sapiens)” registered a logFC.mEQ.over.Luc of −0.13.

“FN1_2217 (FQDTSEYIISCHPVGTDEEPLQFR; listed as Homo sapiens)” returned a logFC.mEQ.over.Luc of 0.14.

With “GALNT2_31 (LAGGAGGGAGR; listed as Homo sapiens)”, the logFC.mEQ.over.Luc was −0.43.

The substance “GSN_35 (SQAGAPQGR; listed as Homo sapiens)” yielded a logFC.mEQ.over.Luc of 0.05.

As for “GSN_413 (HIANVER; listed as Homo sapiens)”, the logFC.mEQ.over.Luc is −0.20.

In the case of “HEG1_49 (GAGLELQLER; listed as Homo sapiens)”, the logFC.mEQ.over.Luc is reported as 0.51.

Substance “HLA−C_52 (VDDTQFVR; listed as Homo sapiens)” returned a logFC.mEQ.over.Luc of 0.35.

“HSPG2_275 (LLPGSVR; listed as Homo sapiens)” returned a logFC.mEQ.over.Luc of 0.38.

“HSPG2_1937 (SSAGQQVAR; listed as Homo sapiens)” had a logFC.mEQ.over.Luc of −0.15.

“HSPG2_2331 (ANLAYPAGSTQPIR; listed as Homo sapiens)” registered a logFC.mEQ.over.Luc of 0.03.

In turn, “HSPG2_2333 (LAYPAGSTQPIR; listed as Homo sapiens)” came in with a logFC.mEQ.over.Luc of 0.01.

Substance “HSPG2_2688 (VADSGEYVCR; listed as Homo sapiens)” yielded a logFC.mEQ.over.Luc of 0.14.

“HSPG2_3250 (SPLPWQHR; listed as Homo sapiens)” had a logFC.mEQ.over.Luc of 0.00.

In turn, “HSPG2_3542 (IAHVELADAGQYR; listed as Homo sapiens)” showed a logFC.mEQ.over.Luc of −0.07.

The substance “HSPG2_3647 ([pGlu]GKVKAFAHLQVPER; listed as Homo sapiens)” had a logFC.mEQ.over.Luc of −0.26.
